# ± gives the standard deviation of the averaged measurements.
# Tested on: ATP
# Test: switch fluorescence ratio, 500 uM ATP over buffer (Cy3 cluster intensity, sum of 5 cycles each) (fold (ratio)); higher = stronger signal-on switching upon ATP binding; sequences stand for … in TCGTCGGCAGCGTCAGATGTGTATAAGAGACAGTTTTTTTTTTTTTTTTTTTTTTTTT…TC
# Settings: aptamer strand: ATP DNA aptamer (quencher-CACCTGGGGGAGTATTGCGGAGGAAGG + anchor), 100 nM annealed; ATP concentration: 500 uM
# Outline: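 Five buffer/ATP imaging cycles were run on Cy3-labelled switching-strand clusters on a modified Illumina MiSeq flow-cell, with NaOH stripping and re-annealing between cycles. In each cycle, clusters annealed to 100 nM quencher-labelled ATP aptamer were imaged in selection buffer, then after 15 min with 500 uM ATP at 22 °C. Per cluster, the fluorescence ratio is summed target-cycle over summed buffer-cycle Cy3 intensity, averaged per switch-domain sequence. Only clusters within 100-1000 RFU were kept.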
# 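Note: ATP exposure 15 min at 22 °C before imaging.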
row,Sequence,switch fluorescence ratio
1,TTCAAAATCT,1.04 ± 0.019
2,GCAAAGGGGT,0.996 ± 0.021
3,TTTGGGTTCC,1.44 ± 0.35
4,TTATCAGGTT,1 ± 0.031
5,TTTTACGTTT,1.04 ± 0.12
6,CGTTTCTTTG,0.966 ± 0.019
7,GGGGTAATTG,1.01 ± 0.019
8,TCGTTGCGAG,0.9898 ± 0.0096
9,CTGTGAAAAA,1.09 ± 0.043
10,GTTTCGAGTA,0.957 ± 0.049
11,CCATTCTTGA,0.996 ± 0.037
12,AGTAGAGATG,1.03 ± 0.028
13,GACGGGCACA,1.13 ± 0.028
14,TTCGGTTCGT,0.98 ± 0.066
15,AGTGGGTAGA,1.04 ± 0.049
16,TGGCGGTTAG,1.01 ± 0.019
17,TTAGTGAAGT,1 ± 0.011
18,TTTATAATCT,1.05 ± 0.019
19,TAACAATTAA,1.03 ± 0.058
20,AACGTGGGGC,1.01 ± 0.05
21,TGGTTGGTGT,1.06 ± 0.015
22,AGCAGGGGGA,1.01 ± 0.034
23,AAAGGGACGT,0.991 ± 0.051

row,Sequence,switch fluorescence ratio
1,GGGGTAGGGT,0.997 ± 0.032
2,GATGCCACAG,1.02 ± 0.07
3,GGTTATTGCT,1.02 ± 0.0033
4,CGAGCTTGAA,1.03 ± 0.022
5,AAATAAACGG,1.08 ± 0.14
6,ATAGTCCACC,1.014 ± 0.0072
7,TTAAACGCTT,1.02 ± 0.043
8,GATTCCTATC,0.996 ± 0.039
9,GATGGCAAGG,1.04 ± 0.043
10,GTCGGATGTG,0.954 ± 0.044
11,CACGACTTTT,1.05 ± 0.04
12,TACGGGGTGC,1.07 ± 0.095
13,CAGGGCAAGG,1.12 ± 0.08
14,GGGGTGTGCG,0.9883 ± 0.0051
15,TTGTTTTGTG,0.978 ± 0.013
16,CGTAAAAGGC,0.994 ± 0.027
17,GACTGCTATA,1.44 ± 0.043
18,GGGGCATTTA,0.9643 ± 0.0047
19,CATTTGATTG,0.988 ± 0.013
20,CGAAATTTGG,1.03 ± 0.044
21,TGAAGGAGGG,1.02 ± 0.06
22,AGGAATTTTT,0.968 ± 0.018
23,TGGGCGAAGG,0.9702 ± 0.0071

row,Sequence,switch fluorescence ratio
1,GTGGGAGGAG,0.985 ± 0.031
2,AGGAATTGGA,1.01 ± 0.1
3,CCAGACGGTC,1.04 ± 0.085
4,CCTTTTATTT,1.04 ± 0.018
5,TTGGGGGATG,0.985 ± 0.0088
6,AATTGCGTTT,1.01 ± 0.024
7,CTTGAAAACT,1.04 ± 0.044
8,TAATCGAAGC,1 ± 0.048
9,TTTCGATGGT,0.959 ± 0.019
10,TCGCTACCGA,1.09 ± 0.04
11,TCGTTAATTA,1.06 ± 0.026
12,ATTTTGTCGG,0.968 ± 0.018
13,TGAATATTGT,1.04 ± 0.051
14,ACCCGGATGG,1.01 ± 0.021
15,AGTTTGGGTA,0.9959 ± 0.008
16,AAAAGGACGG,1.044 ± 0.0036
17,ATGAAAGGTT,0.975 ± 0.021
18,GATGCTAGAT,1.01 ± 0.026
19,GCAAATGGAA,0.982 ± 0.042
20,CACTCGCCTC,1.134 ± 0.0068
21,AGTGTTTCAG,0.956 ± 0.018
22,ACTCTTGCGG,1.01 ± 0.016
23,TCCAAGGCTT,1.038 ± 0.0014

row,Sequence,switch fluorescence ratio
1,TGGGGGAATG,0.992 ± 0.0027
2,GAGTAACTGG,0.983 ± 0.027
3,TTCGGGGGAT,1.01 ± 0.02
4,ATCGTCCCTT,0.986 ± 0.022
5,CTTGAATTTC,0.987 ± 0.017
6,CGCCGGGTCC,1.05 ± 0.02
7,CGGTAAAGAT,1 ± 0.058
8,GGTGATGTGT,1.004 ± 0.0075
9,GGGACGATTG,0.985 ± 0.059
10,TTTCGGGTAG,1.011 ± 0.0014
11,TTGGTTTAAG,1 ± 0.027
12,AGGGCATTCG,0.979 ± 0.026
13,GATGTTCGTG,0.994 ± 0.014
14,TTCCTTTCAA,1.228 ± 0.012
15,GATGATAACG,0.99754 ± 0.00091
16,TTGGCTTTTT,1.01 ± 0.015
17,TAATAGGGTT,1.01 ± 0.027
18,GCTCAAGGAG,0.9951 ± 0.0066
19,CGGTGTAGCT,1.03 ± 0.019
20,TTAACCGTTT,1.09 ± 0.08
21,GGGGGTCACA,0.989 ± 0.029
22,AGGGTGTTGG,1 ± 0.017
23,GTTAAATTAG,0.9875 ± 0.0056

row,Sequence,switch fluorescence ratio
1,GGGTGGGAGG,0.991 ± 0.034
2,TTATGAATGC,0.999 ± 0.055
3,GGGTGAGTG,0.996 ± 0.016
4,AGGGGGTCTG,0.968 ± 0.017
5,ATGTTGGGTG,1.02 ± 0.045
6,CCCGGGGGAA,1.03 ± 0.014
7,ACTACGTCGG,1.08 ± 0.044
8,AACTCATTCA,1.02 ± 0.025
9,GGGGATTCAA,0.988 ± 0.018
10,TACGCATTTG,1.08 ± 0.011
11,GATAGGGGGT,1.01 ± 0.061
12,AAAATAATGG,0.998 ± 0.04
13,ACTATTGCGG,1.01 ± 0.025
14,CCTTTATCGG,0.997 ± 0.012
15,CCTATCCCTG,1.08 ± 0.058
16,AACGGGTTAT,0.995 ± 0.032
17,GTTGTATTAG,0.988 ± 0.025
18,AACGGGTTGG,0.998 ± 0.047
19,GGCATTAGGT,0.977 ± 0.042
20,TGTTGCTGGA,1 ± 0.03
21,TACCGTACGA,1.5 ± 0.019
22,CGGAGCAGTG,1.75 ± 0.055
23,TAATGTTGCA,1.02 ± 0.029

row,Sequence,switch fluorescence ratio
1,TAAGCCATCT,1.04 ± 0.054
2,CGGTATGGGA,0.979 ± 0.044
3,CGTTCGACTG,0.97 ± 0.025
4,GAGATATGAG,1.02 ± 0.024
5,CGTTACGGGG,0.9788 ± 0.0055
6,GGTCTCTTAC,1.02 ± 0.037
7,ATGTGGACTG,1.05 ± 0.014
8,TAAACTTGAC,1.16 ± 0.1
9,CGTAAAACGC,1.02 ± 0.03
10,GTTGTACGAA,1.19 ± 0.28
11,TTGGATATGT,0.9573 ± 0.0047
12,ATGGGGATGG,0.978 ± 0.033
13,ACGTTGCCAG,0.963 ± 0.019
14,GCTGGGAGTC,1 ± 0.029
15,GGGGCCAGCT,0.974 ± 0.043
16,TGATAGCCAG,0.9605 ± 0.0072
17,CTACCCTTTG,1.13 ± 0.038
18,CAGTAAAAGT,0.983 ± 0.031
19,ATTGGGGTTT,1 ± 0.019
20,AGGGGGTTAT,1.01 ± 0.03
21,AATAGGGTTA,1 ± 0.045
22,ATTCGTTTTT,1 ± 0.021
23,TGAGAACCCG,1.02 ± 0.051

row,Sequence,switch fluorescence ratio
1,CAAATTTGCT,0.967 ± 0.022
2,GGCGAGGTGT,1 ± 0.034
3,AAGTATGGGT,0.998 ± 0.028
4,AGTGACATCG,1.14 ± 0.076
5,CCGTTTGCAG,1.13 ± 0.15
6,GGTGTGGGCG,0.983 ± 0.079
7,TGTAAAAAAA,1.04 ± 0.044
8,TTGTCACGGG,1.02 ± 0.05
9,TTTCGCTCGT,0.9628 ± 0.003
10,ATCATGGCTT,1.03 ± 0.011
11,GCGTCAAGTG,0.988 ± 0.026
12,GATTGCAGTA,0.983 ± 0.036
13,TTTCTAAGGG,1.07 ± 0.061
14,GCTTGTATTA,0.985 ± 0.016
15,CATGCATATT,1.01 ± 0.044
16,GGTTATGCGG,1.01 ± 0.046
17,GGGGAGGTTG,0.991 ± 0.037
18,TTGTAAAATG,0.996 ± 0.013
19,TTTGGCTTTG,1.02 ± 0.05
